In PMC11909135, “Raptin, a sleep-induced hypothalamic hormone, suppresses appetite and obesity” (Cell Research, 2025):

Target: glutamate metabotropic receptor 3 (GRM3), endogenous (mouse (endogenous in GT1-7 neurons and …, UniProt Q9QYS2 23-879))
Assay: cell-based or functional assay

Chain of glutamate metabotropic receptor 3 (GRM3), endogenous (mouse (Q9QYS2 23-879): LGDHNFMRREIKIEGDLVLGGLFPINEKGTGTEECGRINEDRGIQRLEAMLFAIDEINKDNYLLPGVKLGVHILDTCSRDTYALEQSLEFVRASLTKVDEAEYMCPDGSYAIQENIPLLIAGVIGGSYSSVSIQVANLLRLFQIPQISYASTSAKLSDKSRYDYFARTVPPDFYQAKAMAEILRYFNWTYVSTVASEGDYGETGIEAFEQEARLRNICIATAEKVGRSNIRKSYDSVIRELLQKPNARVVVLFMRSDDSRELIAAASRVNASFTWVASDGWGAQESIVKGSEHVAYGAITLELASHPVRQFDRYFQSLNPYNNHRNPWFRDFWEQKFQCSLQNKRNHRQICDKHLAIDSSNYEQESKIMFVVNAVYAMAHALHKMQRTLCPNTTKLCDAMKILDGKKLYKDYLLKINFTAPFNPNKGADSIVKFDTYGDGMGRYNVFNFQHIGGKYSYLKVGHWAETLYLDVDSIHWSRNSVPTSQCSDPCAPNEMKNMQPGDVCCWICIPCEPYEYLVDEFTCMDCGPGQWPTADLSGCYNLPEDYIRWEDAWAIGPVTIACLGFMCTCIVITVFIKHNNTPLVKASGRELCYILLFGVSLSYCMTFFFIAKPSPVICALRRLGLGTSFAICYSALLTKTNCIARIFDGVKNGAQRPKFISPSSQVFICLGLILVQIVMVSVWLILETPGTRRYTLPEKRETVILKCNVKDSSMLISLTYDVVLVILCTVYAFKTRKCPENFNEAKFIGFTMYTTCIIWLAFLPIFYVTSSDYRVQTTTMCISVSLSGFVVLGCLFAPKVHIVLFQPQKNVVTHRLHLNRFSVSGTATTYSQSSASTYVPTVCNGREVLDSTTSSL

p-AKT accumulation in GT1-7 cells expressing GRM3 (EC50 of Raptin): 0.31 ng/mL
B1: recombinant mouse Raptin protein with a His-tag (ligand)
chain: AEELHYPQGEHRADYDREALLGVQEDVDEYVKLGHEEQQRRLQSIIKKIDSDSDGFLTENELSQWIQMSFKHYAMQEAKQQFVEYDKNSDGAVTWDEYNIQMYDRVIDFDENTALDDTEEGSFRQLHLKDKKRFEKANQDSGPGLSLEEFIAFEHPEEVDYMTEFVIQEALEEHDKNGDGFVSLEEFLGDYRRDPTANEDPEWILVEKDRFVNDYDKDNDGR
